Here are results for 1 substance from patent publication US20250313819A1.

The target of this experiment is poly-GA dipeptide repeat protein (human). As to the kind of experiment: MSD sandwich ELISA on neuron lysate, C9-patient vs KO line. In general terms: An ELISA detects its analyte on a solid surface through an enzyme-linked reagent.

As for anti-GA antibody (MABN889, Millipore), the ratio of signal from the C9-patient vs KO line was found to be 2.
